First the molecules themselves.
T1: TROP2 (UniProt P09758 27-323, limits assumed)
T1 sequence (looked up): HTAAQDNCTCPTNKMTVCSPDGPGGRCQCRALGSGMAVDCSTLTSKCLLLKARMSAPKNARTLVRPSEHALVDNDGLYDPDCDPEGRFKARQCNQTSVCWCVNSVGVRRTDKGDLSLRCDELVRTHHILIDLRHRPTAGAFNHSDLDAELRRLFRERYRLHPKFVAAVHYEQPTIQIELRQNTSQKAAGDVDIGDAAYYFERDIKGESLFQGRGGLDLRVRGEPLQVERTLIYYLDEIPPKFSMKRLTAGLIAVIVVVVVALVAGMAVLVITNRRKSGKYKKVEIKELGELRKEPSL

B1: hRS7-CPT009-D4 (antibody, human IgG1, kappa, V domains shown)
VH: QVQLQQSGSELKKPGASVKVSCKASGYTFTNYGMNWVKQAPGQGLKWMGWINTYTGEPTYTDDFKGRFAFSLDTSVSTAYLQISSLKADDTAVYFCARGGFGSSYWYFDVWGQGSLVTVSS
VL: DIQLTQSPSSLSASVGDRVSITCKASQDVSIAVAWYQQKPGKAPKLLIYSASYRYTGVPDRFSGSGSGTDFTLTISSLQPEDFAVYYCQQHYITPLTFGAGTKVEIKR
modifications: linker-drug CPT009 on cysteines of reduced interchain disulfides; label D4
B2: hRS7-SN38-D8 (antibody, human IgG1, kappa, V domains shown)
VH: QVQLQQSGSELKKPGASVKVSCKASGYTFTNYGMNWVKQAPGQGLKWMGWINTYTGEPTYTDDFKGRFAFSLDTSVSTAYLQISSLKADDTAVYFCARGGFGSSYWYFDVWGQGSLVTVSS
VL: DIQLTQSPSSLSASVGDRVSITCKASQDVSIAVAWYQQKPGKAPKLLIYSASYRYTGVPDRFSGSGSGTDFTLTISSLQPEDFAVYYCQQHYITPLTFGAGTKVEIKR
modifications: comp.5-linked SN38 on cysteines of reduced interchain disulfides; label D8
B3: DXD (deruxtecan)-conjugated sacituzumab (hRS7-DXD) (antibody, human IgG1, kappa, V domains shown)
VH: QVQLQQSGSELKKPGASVKVSCKASGYTFTNYGMNWVKQAPGQGLKWMGWINTYTGEPTYTDDFKGRFAFSLDTSVSTAYLQISSLKADDTAVYFCARGGFGSSYWYFDVWGQGSLVTVSS
VL: DIQLTQSPSSLSASVGDRVSITCKASQDVSIAVAWYQQKPGKAPKLLIYSASYRYTGVPDRFSGSGSGTDFTLTISSLQPEDFAVYYCQQHYITPLTFGAGTKVEIKR
modifications: deruxtecan (DXD) on cysteines of reduced interchain disulfides; label D4
B4: hRS7-CPT004-D4 (antibody, human IgG1, kappa, V domains shown)
VH: QVQLQQSGSELKKPGASVKVSCKASGYTFTNYGMNWVKQAPGQGLKWMGWINTYTGEPTYTDDFKGRFAFSLDTSVSTAYLQISSLKADDTAVYFCARGGFGSSYWYFDVWGQGSLVTVSS
VL: DIQLTQSPSSLSASVGDRVSITCKASQDVSIAVAWYQQKPGKAPKLLIYSASYRYTGVPDRFSGSGSGTDFTLTISSLQPEDFAVYYCQQHYITPLTFGAGTKVEIKR
modifications: linker-drug CPT004 on cysteines of reduced interchain disulfides; label D4
B5: hRS7-CPT006-D4 (antibody, human IgG1, kappa, V domains shown)
VH: QVQLQQSGSELKKPGASVKVSCKASGYTFTNYGMNWVKQAPGQGLKWMGWINTYTGEPTYTDDFKGRFAFSLDTSVSTAYLQISSLKADDTAVYFCARGGFGSSYWYFDVWGQGSLVTVSS
VL: DIQLTQSPSSLSASVGDRVSITCKASQDVSIAVAWYQQKPGKAPKLLIYSASYRYTGVPDRFSGSGSGTDFTLTISSLQPEDFAVYYCQQHYITPLTFGAGTKVEIKR
modifications: linker-drug CPT006 on cysteines of reduced interchain disulfides; label D4
B6: hRS7-CL2A-SN38-D8 (antibody, human IgG1, kappa, V domains shown)
VH: QVQLQQSGSELKKPGASVKVSCKASGYTFTNYGMNWVKQAPGQGLKWMGWINTYTGEPTYTDDFKGRFAFSLDTSVSTAYLQISSLKADDTAVYFCARGGFGSSYWYFDVWGQGSLVTVSS
VL: DIQLTQSPSSLSASVGDRVSITCKASQDVSIAVAWYQQKPGKAPKLLIYSASYRYTGVPDRFSGSGSGTDFTLTISSLQPEDFAVYYCQQHYITPLTFGAGTKVEIKR
modifications: CL2A-SN38 on cysteines of reduced interchain disulfides; label D8
B7: hRS7-CPT005-D4 (antibody, human IgG1, kappa, V domains shown)
VH: QVQLQQSGSELKKPGASVKVSCKASGYTFTNYGMNWVKQAPGQGLKWMGWINTYTGEPTYTDDFKGRFAFSLDTSVSTAYLQISSLKADDTAVYFCARGGFGSSYWYFDVWGQGSLVTVSS
VL: DIQLTQSPSSLSASVGDRVSITCKASQDVSIAVAWYQQKPGKAPKLLIYSASYRYTGVPDRFSGSGSGTDFTLTISSLQPEDFAVYYCQQHYITPLTFGAGTKVEIKR
modifications: linker-drug CPT005 on cysteines of reduced interchain disulfides; label D4
B8: hRS7-C6-D4 (antibody, human IgG1, kappa, V domains shown)
VH: QVQLQQSGSELKKPGASVKVSCKASGYTFTNYGMNWVKQAPGQGLKWMGWINTYTGEPTYTDDFKGRFAFSLDTSVSTAYLQISSLKADDTAVYFCARGGFGSSYWYFDVWGQGSLVTVSS
VL: DIQLTQSPSSLSASVGDRVSITCKASQDVSIAVAWYQQKPGKAPKLLIYSASYRYTGVPDRFSGSGSGTDFTLTISSLQPEDFAVYYCQQHYITPLTFGAGTKVEIKR
modifications: linker-drug comp6 on cysteines of reduced interchain disulfides; DAR 3.49
B9: hRS7-C9-D4 (antibody, human IgG1, kappa, V domains shown)
VH: QVQLQQSGSELKKPGASVKVSCKASGYTFTNYGMNWVKQAPGQGLKWMGWINTYTGEPTYTDDFKGRFAFSLDTSVSTAYLQISSLKADDTAVYFCARGGFGSSYWYFDVWGQGSLVTVSS
VL: DIQLTQSPSSLSASVGDRVSITCKASQDVSIAVAWYQQKPGKAPKLLIYSASYRYTGVPDRFSGSGSGTDFTLTISSLQPEDFAVYYCQQHYITPLTFGAGTKVEIKR
modifications: linker-drug comp9 on cysteines of reduced interchain disulfides; DAR 3.54
B10: hRS7-C8-D4 (antibody, human IgG1, kappa, V domains shown)
VH: QVQLQQSGSELKKPGASVKVSCKASGYTFTNYGMNWVKQAPGQGLKWMGWINTYTGEPTYTDDFKGRFAFSLDTSVSTAYLQISSLKADDTAVYFCARGGFGSSYWYFDVWGQGSLVTVSS
VL: DIQLTQSPSSLSASVGDRVSITCKASQDVSIAVAWYQQKPGKAPKLLIYSASYRYTGVPDRFSGSGSGTDFTLTISSLQPEDFAVYYCQQHYITPLTFGAGTKVEIKR
modifications: linker-drug comp8 on cysteines of reduced interchain disulfides; DAR 3.52
B11: hRS7-C7-D4 (antibody, human IgG1, kappa, V domains shown)
VH: QVQLQQSGSELKKPGASVKVSCKASGYTFTNYGMNWVKQAPGQGLKWMGWINTYTGEPTYTDDFKGRFAFSLDTSVSTAYLQISSLKADDTAVYFCARGGFGSSYWYFDVWGQGSLVTVSS
VL: DIQLTQSPSSLSASVGDRVSITCKASQDVSIAVAWYQQKPGKAPKLLIYSASYRYTGVPDRFSGSGSGTDFTLTISSLQPEDFAVYYCQQHYITPLTFGAGTKVEIKR
modifications: linker-drug comp7 on cysteines of reduced interchain disulfides; DAR 3.56
B12: hRS7-CPD3-NC-D4 (antibody, human IgG1, kappa, V domains shown)
VH: QVQLQQSGSELKKPGASVKVSCKASGYTFTNYGMNWVKQAPGQGLKWMGWINTYTGEPTYTDDFKGRFAFSLDTSVSTAYLQISSLKADDTAVYFCARGGFGSSYWYFDVWGQGSLVTVSS
VL: DIQLTQSPSSLSASVGDRVSITCKASQDVSIAVAWYQQKPGKAPKLLIYSASYRYTGVPDRFSGSGSGTDFTLTISSLQPEDFAVYYCQQHYITPLTFGAGTKVEIKR
modifications: linker-drug CPD3 on cysteines of reduced interchain disulfides; label D4
B13: hRS7-CPD5-NC-D4 (antibody, human IgG1, kappa, V domains shown)
VH: QVQLQQSGSELKKPGASVKVSCKASGYTFTNYGMNWVKQAPGQGLKWMGWINTYTGEPTYTDDFKGRFAFSLDTSVSTAYLQISSLKADDTAVYFCARGGFGSSYWYFDVWGQGSLVTVSS
VL: DIQLTQSPSSLSASVGDRVSITCKASQDVSIAVAWYQQKPGKAPKLLIYSASYRYTGVPDRFSGSGSGTDFTLTISSLQPEDFAVYYCQQHYITPLTFGAGTKVEIKR
modifications: linker-drug CPD5 on cysteines of reduced interchain disulfides; label D4
B14: hRS7-CPD1-NC-D4 (antibody, human IgG1, kappa, V domains shown)
VH: QVQLQQSGSELKKPGASVKVSCKASGYTFTNYGMNWVKQAPGQGLKWMGWINTYTGEPTYTDDFKGRFAFSLDTSVSTAYLQISSLKADDTAVYFCARGGFGSSYWYFDVWGQGSLVTVSS
VL: DIQLTQSPSSLSASVGDRVSITCKASQDVSIAVAWYQQKPGKAPKLLIYSASYRYTGVPDRFSGSGSGTDFTLTISSLQPEDFAVYYCQQHYITPLTFGAGTKVEIKR
modifications: linker-drug CPD1 on cysteines of reduced interchain disulfides; label D4
B15: hRS7-CPD6-NC-D4 (antibody, human IgG1, kappa, V domains shown)
VH: QVQLQQSGSELKKPGASVKVSCKASGYTFTNYGMNWVKQAPGQGLKWMGWINTYTGEPTYTDDFKGRFAFSLDTSVSTAYLQISSLKADDTAVYFCARGGFGSSYWYFDVWGQGSLVTVSS
VL: DIQLTQSPSSLSASVGDRVSITCKASQDVSIAVAWYQQKPGKAPKLLIYSASYRYTGVPDRFSGSGSGTDFTLTISSLQPEDFAVYYCQQHYITPLTFGAGTKVEIKR
modifications: linker-drug CPD6 on cysteines of reduced interchain disulfides; label D4
B16: hRS7-CPD2-NC-D4 (antibody, human IgG1, kappa, V domains shown)
VH: QVQLQQSGSELKKPGASVKVSCKASGYTFTNYGMNWVKQAPGQGLKWMGWINTYTGEPTYTDDFKGRFAFSLDTSVSTAYLQISSLKADDTAVYFCARGGFGSSYWYFDVWGQGSLVTVSS
VL: DIQLTQSPSSLSASVGDRVSITCKASQDVSIAVAWYQQKPGKAPKLLIYSASYRYTGVPDRFSGSGSGTDFTLTISSLQPEDFAVYYCQQHYITPLTFGAGTKVEIKR
modifications: linker-drug CPD2 on cysteines of reduced interchain disulfides; label D4
B17: hRS7-CPD4-NC-D4 (antibody, human IgG1, kappa, V domains shown)
VH: QVQLQQSGSELKKPGASVKVSCKASGYTFTNYGMNWVKQAPGQGLKWMGWINTYTGEPTYTDDFKGRFAFSLDTSVSTAYLQISSLKADDTAVYFCARGGFGSSYWYFDVWGQGSLVTVSS
VL: DIQLTQSPSSLSASVGDRVSITCKASQDVSIAVAWYQQKPGKAPKLLIYSASYRYTGVPDRFSGSGSGTDFTLTISSLQPEDFAVYYCQQHYITPLTFGAGTKVEIKR
modifications: linker-drug CPD4 on cysteines of reduced interchain disulfides; label D4

The first experiment deals with T1, TROP2. The experiment is described as follows: cell-based or functional assay.
Regarding B1, the “EC50(nM), inhibition of BxPC-3 cell proliferation” value (shortened to “EC50(nM), inhibition”) stood at 0.353 nM and the “Relative activity (%), inhibition of BxPC-3 cell proliferation” value (from here on “Relative activity (%), inhibition”) is 50.7%.
With B2, the “EC50(nM), inhibition” value worked out at 6.46 nM.
As to B3, the “EC50(nM), inhibition” value amounted to 0.156 nM and the “Relative activity (%), inhibition” value amounted to 100%.
The like results for B4 were, in that order, 0.144 nM and 109%.
For B5, the “EC50(nM), inhibition” value was 0.259 nM and the “Relative activity (%), inhibition” value is 60.4%.
For B6, in that order: 0.259 nM and 100%.
The like results for B7 were, in that order, 0.101 nM and 155%.

In a further experiment the target is T1, TROP2. Briefly: cell-based or functional assay. The source holds these as a separate data set.
B8: the “EC50(nM), inhibition” value came out at 0.393 nM and the “Relative activity (%), inhibition” value came to 80%.
The like results for B9 were, in that order, 0.377 nM and 108%.
With B3, the “Relative activity (%), inhibition” value amounted to 100%.
On to B10, for which the “EC50(nM), inhibition” value was 0.323 nM and the “Relative activity (%), inhibition” value amounted to 97%.
The like results for B11 were, in that order, 0.305 nM and 103%.

The target in a further experiment is T1, TROP2. Briefly: cell-based or functional assay. This is another data set of the same source.
B12: the “EC50(nM), inhibition” value was 0.309 nM and the “Relative activity (%), inhibition” value turned out to be 156%.
In the case of B13, the “EC50(nM), inhibition” value was found to be 0.478 nM and the “Relative activity (%), inhibition” value is 79.6%.
The like results for B14 were, in that order, 0.468 nM and 103%.
For B3, in that order: 0.38 nM and 100%.
With B15, the “EC50(nM), inhibition” value worked out at 0.341 nM and the “Relative activity (%), inhibition” value came to 111%.
Turning to B16, the “EC50(nM), inhibition” value amounted to 0.327 nM and the “Relative activity (%), inhibition” value came to 147%.
For B17, in that order: 0.424 nM and 89.6%.

The values above are taken from patent EP4588489A1, “LINKER FOR ANTIBODY-DRUG CONJUGATE AND USE THEREOF” (priority 2022, dated 2024).
